Data: patent US20240141027A1 (BIOARCTIC, published 2024)
Blank lines part the entries; values can stand above or below the binder they belong to.

Key:
recombinant Aβ1-42 = target: T1, recombinant Aβ1-42; experiment: indirect ELISA, plates coated with recombinant Aβ1-42
T1 construct: Coated at 0.5 µg/ml on ELISA plates; also called Amyloid Beta (Aβ1-42)

[1] = target: T2, recombinant murine transferrin receptor 1 (mTfR1), extracellular domain fused to a His-tag (murine, UniProt Q62351 89-763); experiment: BLI (Octet), mTfR1 captured on holo-transferrin sensors, analyte 50 nM
T2 construct: Position of the His-tag (N or C) unknown; also called recombinant mTfR1; murine TfR1; not shown: His-tag
T2 sequence (Q62351 89-763): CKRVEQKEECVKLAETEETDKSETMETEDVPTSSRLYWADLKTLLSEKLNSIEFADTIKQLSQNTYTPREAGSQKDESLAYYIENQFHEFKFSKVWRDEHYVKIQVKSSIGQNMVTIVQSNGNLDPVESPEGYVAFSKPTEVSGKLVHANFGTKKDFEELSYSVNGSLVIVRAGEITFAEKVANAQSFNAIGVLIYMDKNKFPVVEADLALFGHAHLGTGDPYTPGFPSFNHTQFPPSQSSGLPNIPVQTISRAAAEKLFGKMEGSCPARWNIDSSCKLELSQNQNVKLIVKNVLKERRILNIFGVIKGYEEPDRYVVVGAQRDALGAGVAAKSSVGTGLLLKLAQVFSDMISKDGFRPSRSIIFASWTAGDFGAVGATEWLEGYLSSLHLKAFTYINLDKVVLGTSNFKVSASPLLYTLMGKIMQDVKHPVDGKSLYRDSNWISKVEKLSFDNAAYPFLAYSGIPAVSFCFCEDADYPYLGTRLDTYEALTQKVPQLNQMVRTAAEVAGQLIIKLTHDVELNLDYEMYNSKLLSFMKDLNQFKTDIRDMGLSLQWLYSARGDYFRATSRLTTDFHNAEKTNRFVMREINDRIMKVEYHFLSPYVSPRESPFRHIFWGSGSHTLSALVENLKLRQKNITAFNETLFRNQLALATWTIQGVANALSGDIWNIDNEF

T1 sequence (peptide, as listed by the source): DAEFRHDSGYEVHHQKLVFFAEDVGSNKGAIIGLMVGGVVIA

B1: mAb158-scLc-8D3-Ig.9 (bispecific antibody, human IgG1, kappa)
heavy: not shown
chain: DIVMTQAPLSLPVSLGDQASISCRSSQSIVHSNGNTYLEWYLQKPGQSPKLLIYKVSNRFSGVPDRFSGSGSGTDFTLKISRVEAEDLGIYYCFQGSHVPPTFGGGTKLEIKRADAAPTVSIFPPSSEQLTSGGASVVCFLNNFYPKDINVKWKIDGSERQNGVLNSWTDQDSKDSTYSMSSTLTLTKDEYERHNSYTCEATHKTSTSPIVKSFNRNECGGGGSGGGGSGGGGSGGGGSEVQLVESGGGLVQPGNSLTLSCVASGFTFSNYGMHWIRQAPKKGLEWIAMIYYDSSKMNYADTVKGRFTISRDNSKNTLYLEMNSLRSEDTAMYYCAVPTSHYVVDVWGQGVSVTVSSGGGGSGGGGSGGGGSDIQMTQSPASLSASLEEIVTITCQASQDIGNWLAWYQQKPGKSPQLLIYGATSLADGVPSRFSGSRSGTQFSLKISRVQVEDIGIYYCLQAYNTPWTFGGGTKLELKRGGGGSGGGGSGGGGSGGGGSDIVMTQAPLSLPVSLGDQASISCRSSQSIVHSNGNTYLEWYLQKPGQSPKLLIYKVSNRFSGVPDRFSGSGSGTDFTLKISRVEAEDLGIYYCFQGSHVPPTFGGGTKLEIKRADAAPTVSIFPPSSEQLTSGGASVVCFLNNFYPKDINVKWKIDGSERQNGVLNSWTDQDSKDSTYSMSSTLTLTKDEYERHNSYTCEATHKTSTSPIVKSFNRNEC
notes: Format [LC-L1-scBM-L2-LC]
binding result (recombinant Aβ1-42): binds
binding result [1]: binds

B2: mAb158-scLc-15G11-1-Ig.1 (bispecific antibody, human IgG1, kappa)
heavy: not shown
chain: DIVMTQAPLSLPVSLGDQASISCRSSQSIVHSNGNTYLEWYLQKPGQSPKLLIYKVSNRFSGVPDRFSGSGSGTDFTLKISRVEAEDLGIYYCFQGSHVPPTFGGGTKLEIKRTVAAPSVFIFPPSDEQLKSGTASVVCLLNNFYPREAKVQWKVDNALQSGNSQESVTEQDSKDSTYSLSSTLTLSKADYEKHKVYACEVTHQGLSSPVTKSFNRGECGGGGSGGGGSGGGGSEVQLVQSGAEVKKPGASVKVSCKASGYTFTSYWMHWVRQAPGQRLEWIGEINPTNGRTNYIEKFKSRATLTVDKSASTAYMELSSLRSEDTAVYYCARGTRAYHYWGQGTMVTVSSGGGGSGGGGSGGGGSDIQMTQSPSSLSASVGDRVTITCRASDNLYSNLAWYQQKPGKSPKLLVYDATNLADGVPSRFSGSGSGTDYTLTISSLQPEDFATYYCQHFWGTPLTFGQGTKVEIKGGGGSGGGGSGGGGSDIVMTQAPLSLPVSLGDQASISCRSSQSIVHSNGNTYLEWYLQKPGQSPKLLIYKVSNRFSGVPDRFSGSGSGTDFTLKISRVEAEDLGIYYCFQGSHVPPTFGGGTKLEIKRTVAAPSVFIFPPSDEQLKSGTASVVCLLNNFYPREAKVQWKVDNALQSGNSQESVTEQDSKDSTYSLSSTLTLSKADYEKHKVYACEVTHQGLSSPVTKSFNRGEC
notes: Format [LC-L1-scBM-L2-LC]
binding result (recombinant Aβ1-42): binds

B3: mAb158-scLc-8D3-Ig.10 (bispecific antibody, human IgG1, kappa)
heavy: not shown
chain: DIVMTQAPLSLPVSLGDQASISCRSSQSIVHSNGNTYLEWYLQKPGQSPKLLIYKVSNRFSGVPDRFSGSGSGTDFTLKISRVEAEDLGIYYCFQGSHVPPTFGGGTKLEIKRADAAPTVSIFPPSSEQLTSGGASVVCFLNNFYPKDINVKWKIDGSERQNGVLNSWTDQDSKDSTYSMSSTLTLTKDEYERHNSYTCEATHKTSTSPIVKSFNRNECGGGGSGGGGSGGGGSGGGGSGGGGSEVQLVESGGGLVQPGNSLTLSCVASGFTFSNYGMHWIRQAPKKGLEWIAMIYYDSSKMNYADTVKGRFTISRDNSKNTLYLEMNSLRSEDTAMYYCAVPTSHYVVDVWGQGVSVTVSSGGGGSGGGGSGGGGSDIQMTQSPASLSASLEEIVTITCQASQDIGNWLAWYQQKPGKSPQLLIYGATSLADGVPSRFSGSRSGTQFSLKISRVQVEDIGIYYCLQAYNTPWTFGGGTKLELKRGGGGSGGGGSDIVMTQAPLSLPVSLGDQASISCRSSQSIVHSNGNTYLEWYLQKPGQSPKLLIYKVSNRFSGVPDRFSGSGSGTDFTLKISRVEAEDLGIYYCFQGSHVPPTFGGGTKLEIKRADAAPTVSIFPPSSEQLTSGGASVVCFLNNFYPKDINVKWKIDGSERQNGVLNSWTDQDSKDSTYSMSSTLTLTKDEYERHNSYTCEATHKTSTSPIVKSFNRNEC
notes: Format [LC-L1-scBM-L2-LC]
binding result (recombinant Aβ1-42): binds
binding result [1]: binds

B4: mAb158-scLc-8D3-Ig.8 (bispecific antibody, human IgG1, kappa)
heavy: not shown
chain: DIVMTQAPLSLPVSLGDQASISCRSSQSIVHSNGNTYLEWYLQKPGQSPKLLIYKVSNRFSGVPDRFSGSGSGTDFTLKISRVEAEDLGIYYCFQGSHVPPTFGGGTKLEIKRADAAPTVSIFPPSSEQLTSGGASVVCFLNNFYPKDINVKWKIDGSERQNGVLNSWTDQDSKDSTYSMSSTLTLTKDEYERHNSYTCEATHKTSTSPIVKSFNRNECGGGGSGGGGSGGGGSEVQLVESGGGLVQPGNSLTLSCVASGFTFSNYGMHWIRQAPKKGLEWIAMIYYDSSKMNYADTVKGRFTISRDNSKNTLYLEMNSLRSEDTAMYYCAVPTSHYVVDVWGQGVSVTVSSGGGGSGGGGSGGGGSDIQMTQSPASLSASLEEIVTITCQASQDIGNWLAWYQQKPGKSPQLLIYGATSLADGVPSRFSGSRSGTQFSLKISRVQVEDIGIYYCLQAYNTPWTFGGGTKLELKRGGGGSGGGGSGGGGSDIVMTQAPLSLPVSLGDQASISCRSSQSIVHSNGNTYLEWYLQKPGQSPKLLIYKVSNRFSGVPDRFSGSGSGTDFTLKISRVEAEDLGIYYCFQGSHVPPTFGGGTKLEIKRADAAPTVSIFPPSSEQLTSGGASVVCFLNNFYPKDINVKWKIDGSERQNGVLNSWTDQDSKDSTYSMSSTLTLTKDEYERHNSYTCEATHKTSTSPIVKSFNRNEC
notes: Format [LC-L1-scBM-L2-LC]
binding result (recombinant Aβ1-42): binds
binding result [1]: binds

B5: mAb158-scLc-8D3-Ig.14 (bispecific antibody, human IgG1, kappa)
heavy: not shown
chain: DIVMTQAPLSLPVSLGDQASISCRSSQSIVHSNGNTYLEWYLQKPGQSPKLLIYKVSNRFSGVPDRFSGSGSGTDFTLKISRVEAEDLGIYYCFQGSHVPPTFGGGTKLEIKRADAAPTVSIFPPSSEQLTSGGASVVCFLNNFYPKDINVKWKIDGSERQNGVLNSWTDQDSKDSTYSMSSTLTLTKDEYERHNSYTCEATHKTSTSPIVKSFNRNECGGGGSGGGGSGGGGSGGGGSGGGGSDIQMTQSPASLSASLEEIVTITCQASQDIGNWLAWYQQKPGKSPQLLIYGATSLADGVPSRFSGSRSGTQFSLKISRVQVEDIGIYYCLQAYNTPWTFGGGTKLELKRGGGGSGGGGSGGGGSEVQLVESGGGLVQPGNSLTLSCVASGFTFSNYGMHWIRQAPKKGLEWIAMIYYDSSKMNYADTVKGRFTISRDNSKNTLYLEMNSLRSEDTAMYYCAVPTSHYVVDVWGQGVSVTVSSGGGGSGGGGSGGGGSDIVMTQAPLSLPVSLGDQASISCRSSQSIVHSNGNTYLEWYLQKPGQSPKLLIYKVSNRFSGVPDRFSGSGSGTDFTLKISRVEAEDLGIYYCFQGSHVPPTFGGGTKLEIKRADAAPTVSIFPPSSEQLTSGGASVVCFLNNFYPKDINVKWKIDGSERQNGVLNSWTDQDSKDSTYSMSSTLTLTKDEYERHNSYTCEATHKTSTSPIVKSFNRNEC
notes: Format [LC-L1-scBM-L2-LC]; also called mAb158-scLc-Ig.14
binding result (recombinant Aβ1-42): binds
binding result [1]: binds

Next, values leading:

binding result (recombinant Aβ1-42): binds
binding result [1]: binds
B6: mAb158-scLc-8D3-Ig.11 (bispecific antibody, human IgG1, kappa)
heavy: not shown
chain: DIVMTQAPLSLPVSLGDQASISCRSSQSIVHSNGNTYLEWYLQKPGQSPKLLIYKVSNRFSGVPDRFSGSGSGTDFTLKISRVEAEDLGIYYCFQGSHVPPTFGGGTKLEIKRADAAPTVSIFPPSSEQLTSGGASVVCFLNNFYPKDINVKWKIDGSERQNGVLNSWTDQDSKDSTYSMSSTLTLTKDEYERHNSYTCEATHKTSTSPIVKSFNRNECGGGGSGGGGSGGGGSGGGGSGGGGSEVQLVESGGGLVQPGNSLTLSCVASGFTFSNYGMHWIRQAPKKGLEWIAMIYYDSSKMNYADTVKGRFTISRDNSKNTLYLEMNSLRSEDTAMYYCAVPTSHYVVDVWGQGVSVTVSSGGGGSGGGGSGGGGSDIQMTQSPASLSASLEEIVTITCQASQDIGNWLAWYQQKPGKSPQLLIYGATSLADGVPSRFSGSRSGTQFSLKISRVQVEDIGIYYCLQAYNTPWTFGGGTKLELKRGGGGSGGGGSGGGGSDIVMTQAPLSLPVSLGDQASISCRSSQSIVHSNGNTYLEWYLQKPGQSPKLLIYKVSNRFSGVPDRFSGSGSGTDFTLKISRVEAEDLGIYYCFQGSHVPPTFGGGTKLEIKRADAAPTVSIFPPSSEQLTSGGASVVCFLNNFYPKDINVKWKIDGSERQNGVLNSWTDQDSKDSTYSMSSTLTLTKDEYERHNSYTCEATHKTSTSPIVKSFNRNEC
notes: Format [LC-L1-scBM-L2-LC]

binding result (recombinant Aβ1-42): binds
binding result [1]: binds
B7: mAb158-scLc-8D3-Ig.7 (bispecific antibody, human IgG1, kappa)
heavy: not shown
chain: DIVMTQAPLSLPVSLGDQASISCRSSQSIVHSNGNTYLEWYLQKPGQSPKLLIYKVSNRFSGVPDRFSGSGSGTDFTLKISRVEAEDLGIYYCFQGSHVPPTFGGGTKLEIKRADAAPTVSIFPPSSEQLTSGGASVVCFLNNFYPKDINVKWKIDGSERQNGVLNSWTDQDSKDSTYSMSSTLTLTKDEYERHNSYTCEATHKTSTSPIVKSFNRNECGGGGSGGGGSEVQLVESGGGLVQPGNSLTLSCVASGFTFSNYGMHWIRQAPKKGLEWIAMIYYDSSKMNYADTVKGRFTISRDNSKNTLYLEMNSLRSEDTAMYYCAVPTSHYVVDVWGQGVSVTVSSGGGGSGGGGSGGGGSDIQMTQSPASLSASLEEIVTITCQASQDIGNWLAWYQQKPGKSPQLLIYGATSLADGVPSRFSGSRSGTQFSLKISRVQVEDIGIYYCLQAYNTPWTFGGGTKLELKRGGGGSGGGGSDIVMTQAPLSLPVSLGDQASISCRSSQSIVHSNGNTYLEWYLQKPGQSPKLLIYKVSNRFSGVPDRFSGSGSGTDFTLKISRVEAEDLGIYYCFQGSHVPPTFGGGTKLEIKRADAAPTVSIFPPSSEQLTSGGASVVCFLNNFYPKDINVKWKIDGSERQNGVLNSWTDQDSKDSTYSMSSTLTLTKDEYERHNSYTCEATHKTSTSPIVKSFNRNEC
notes: Format [LC-L1-scBM-L2-LC]

binding result (recombinant Aβ1-42): binds
binding result [1]: binds
B8: mAb158-scLc-8D3-Ig.12 (bispecific antibody, human IgG1, kappa)
heavy: not shown
chain: DIVMTQAPLSLPVSLGDQASISCRSSQSIVHSNGNTYLEWYLQKPGQSPKLLIYKVSNRFSGVPDRFSGSGSGTDFTLKISRVEAEDLGIYYCFQGSHVPPTFGGGTKLEIKRADAAPTVSIFPPSSEQLTSGGASVVCFLNNFYPKDINVKWKIDGSERQNGVLNSWTDQDSKDSTYSMSSTLTLTKDEYERHNSYTCEATHKTSTSPIVKSFNRNECGGGGSGGGGSGGGGSGGGGSGGGGSEVQLVESGGGLVQPGNSLTLSCVASGFTFSNYGMHWIRQAPKKGLEWIAMIYYDSSKMNYADTVKGRFTISRDNSKNTLYLEMNSLRSEDTAMYYCAVPTSHYVVDVWGQGVSVTVSSGGGGSGGGGSGGGGSDIQMTQSPASLSASLEEIVTITCQASQDIGNWLAWYQQKPGKSPQLLIYGATSLADGVPSRFSGSRSGTQFSLKISRVQVEDIGIYYCLQAYNTPWTFGGGTKLELKRGGGGSGGGGSGGGGSGGGGSDIVMTQAPLSLPVSLGDQASISCRSSQSIVHSNGNTYLEWYLQKPGQSPKLLIYKVSNRFSGVPDRFSGSGSGTDFTLKISRVEAEDLGIYYCFQGSHVPPTFGGGTKLEIKRADAAPTVSIFPPSSEQLTSGGASVVCFLNNFYPKDINVKWKIDGSERQNGVLNSWTDQDSKDSTYSMSSTLTLTKDEYERHNSYTCEATHKTSTSPIVKSFNRNEC
notes: Format [LC-L1-scBM-L2-LC]; also called mAb158-scLc-Ig.12
